Reference: the nanobody polyreactivity screen of Harvey et al. (2022)

Experiment: yeast display, Sf9 membrane polyspecificity reagent, FACS + sequencing; frameworks hold sequencing errors
Summary of the method: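 Nanobodies from a synthetic yeast display library (Saccharomyces cerevisiae BJ5465), induced 36–48 hours with galactose, were stained 1 hour at 4 °C with 10% biotinylated, detergent-solubilized Sf9 membrane reagent, enriched on streptavidin microbeads, then FACS-sorted. Anti-HA (expression) and streptavidin (reagent binding) fluorescence set low and high (top ~1%) gates. Polyreactivity labels come from the gate of origin. Genes were colony-PCR amplified, MiSeq 2 × 250 sequenced and filtered by CDR length.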
For “QVQLLESGGGLVQAGGSLRLSCAASGSIFRYNDMGWYRKAPGKETELVATITSGTNTYYADSVKGRFTISRDNAQNTVYLQMNRLKPEDTAVYYCAKSYNAWDGRTFEEMNYWGQGTQVTVSS”, the “polyreactivity (PSR sort gate)” value was “low polyreactivity”.
In the case of “QVQLLESGGGLVQAGGSLRLSCAASGSIFVFYAMGWYRQAPGKERELVAAISSSGGSTYYADTVKGRITISRDNAKNTVYLQMNSLKPEDTAVYYCAVRRSTGSRSPPMYYWGQGTQVTVSS”, the “polyreactivity (PSR sort gate)” value is reported as “high polyreactivity”.
In the case of “QVQLLESGGGLVQAGGSLRLSCAASGSILYPYAMGWYRQAPGTERELVAVITKSGGGTYYADSVKGRFTISRDNAKNTVYLQMNSLKPEDTAVYYCNRVWLRGAPHMEYWGQGTQVTVSS”, the “polyreactivity (PSR sort gate)” value is reported as “high polyreactivity”.
In the case of “QVQLLESGGGLVQAGGSLRLSCAASGSIYVYNAMAWYRQAPGKERELVAAISRGGRTYADSVKGRFTISRDNAKNTVYLQMNSLKPEDTAVYYCAAQGYYRSWYSRQGHYDFWGQGTQVTVSS”, the “polyreactivity (PSR sort gate)” value is reported as “high polyreactivity”.
In the case of “QVQLLESGGGLVQAGGSLRLSCAASGSTCGRNAMGWYRQAPGKERELVAAITSTGSTYYADSVKGRFTISRDNAKNTFYLQMNSLNPEDTAVYYCAAEARPYLFPAYKYPYYSWGQGTQVTVSS”, the “polyreactivity (PSR sort gate)” value is reported as “low polyreactivity”.
In the case of “QVQLLESGGGLVQAGGSLRLSCAASGSTFDRYAMGWNRQAPGKEREFVAAITWGGGSTYYADSVKGRFTISRDNAKNTVYLKFNSLKPEDTAVYYCATRYGASFGYWVQGTQVTVSS”, the “polyreactivity (PSR sort gate)” value is reported as “low polyreactivity”.
In the case of “QVQLLESGGGLVQAGGSLRLSCAASGSTFGFYAMGCYRPAPGKERELVAAISKSGDITYYADSVKGRFTNSLDNAKNTVYLQMNSLKPEDTAVYYCADRYGYLDNSIYVYWGQGTQVTVSS”, the “polyreactivity (PSR sort gate)” value is reported as “high polyreactivity”.
For “QVQLLESGGGLVQAGGSLRLSCAASGSTFINNAMGWYRQAPGKERELVAAISGNADRTYYADSVKGRFTISRDYAKNTVYLQMISLKPEDTAVYYCNALSLLSDGAASVDQVTFDYWGQGTQVTVSS”, the “polyreactivity (PSR sort gate)” value was “low polyreactivity”.
For “QVQLLESGGGLVQAGGSLRLSCAASGSTFLANAMGWYRQAPGKERDLVAAISSSGGSTYYADSVKWRFTISRDNAKNTVYVQMNSLKPEDTAVYYCAAATASRYRLWGGYYYWGQGTQVTVSS”, the “polyreactivity (PSR sort gate)” value was “low polyreactivity”.
In the case of “QVQLLESGGGLVQAGGSLRLSCAASGSTFPRYVMGWYRQAPGKERELVAAISSSSGRTFYADSVKGRFTISRDNAKNTVYLQMNSLKPEDTSVYYCAARTSFNVHYWGQGTQVTVSS”, the “polyreactivity (PSR sort gate)” value is reported as “high polyreactivity”.
With “QVQLLESGGGLVQAGGSLRLSCAASGSTFYSYAMGGYRQAPGKERELVAAISSSSGSTYYADSVKGRFTISRDNANNSVYLQMNSLKPEDTAVYYCNRGRRYSHKYDYWGQGTQVTVSS” the “polyreactivity (PSR sort gate)” value was “high polyreactivity”.
With “QVQLLESGGGLVQAGGSLRLSCAASGYTFAYYAMGWYRQAPGKERELVATISWSDGSTYYADSVKGRFTISRDNAKNTVYLQMNSLKPEDTAVYYCAADTPGYYTYYGFGYWGQGTQVTVSS” the “polyreactivity (PSR sort gate)” value was “low polyreactivity”.
With “QVQLLESGGGLVQAGGSLRLSCAASGYTFRYYTMGWYRQAPGKERELVAAISGSGGSTYYADSVKGRFTISRDTAKNTVYLQMNSLKPEDTAVYYCNRFYSTSRITQYEFDYWGQGTQVTVSS” the “polyreactivity (PSR sort gate)” value was “high polyreactivity”.
For “QVQLLESGGGLVQAGGSLRLSCAASGYTLRKYAMGWYRQAPGKERELVAAIRTSGGSTYYADSVKGRFTISRDNAKNTVYLQMNSLKPEDTAVYYCAAEWIFSYTWEYDYWGQGTQVTVSS”, the “polyreactivity (PSR sort gate)” value was “low polyreactivity”.
With “QVQLLESGGGLVQAGGSLRLSCAASVSTFLYYTMGWYRQATGKQRELVAAISDDGSTSYADSVKGRFTISRDNAKITVYLQMNSLKPEDTAVYYCAARFYHNRYTFYDFYTLYPYYYWGQGTQVTVSS” the “polyreactivity (PSR sort gate)” value was “low polyreactivity”.
With “QVQLLESGGGLVQAGGSLRLSCKARGSILGDRMSWYRQAPVKEHELVATIYDGGITYYADSMKGRFTISRDNAKNTVYLQMNRLRPEDTAVYYCGASFEGYRYHVYCGQGTQVTVSS” the “polyreactivity (PSR sort gate)” value was “low polyreactivity”.
In the case of “QVQLLESGGGLVQAGGSLRLSCMASGSILGDRMSWYRQAPGKEHELVATIYDGGITYYADSMKGRFTISRDNAKNTVYLQMNSLRPEDTAVYYCGASFEGYGYHVYCGQGTQVTVSS”, the “polyreactivity (PSR sort gate)” value is reported as “low polyreactivity”.
